Reference: patent US20210107983A1 (Boehringer Ingelheim, published 2021)

B1: B7H6#23/CD3#5 (bispecific antibody, human IgG1, kappa, L234A L235A)
chain 1: DIQMTQSPSSLSASVGDRVTITCKASQNVGKYVAWYQQKPGKAPKSLIYSASNRYDAVPSRFSGSGSGTDFTLTISSLQPEDFATYFCQQYISYPLTFGAGTKLEIKRTVAAPSVFIFPPSDEQLKSGTASVVCLLNNFYPREAKVQWKVDNALQSGNSQESVTEQDSKDSTYSLSSTLTLSKADYEKHKVYACEVTHQGLSSPVTKSFNRGECGGGGSEGKSSGSGSESKSTEGKSSGSGSESKSTGGGGSQVQLVQSGAEVKKPGASVKVSCKASGYTFTSYWMNWMKQAPGQGLEWIGGIYLSGESTDYNEKFKGKVTMTVDTSTSTVYMELSSLRSEDTAVYYCTRRGDYFGDFWGQGTLVTVSSASTKGPSVFPLAPSSKSTSGGTAALGCLVKDYFPEPVTVSWNSGALTSGVHTFPAVLQSSGLYSLSSVVTVPSSSLGTQTYICNVNHKPSNTKVDKRVEPKSCDKTHTCPPCPAPEAAGGPSVFLFPPKPKDTLMISRTPEVTCVVVDVSHEDPEVKFNWYVDGVEVHNAKTKPREEQYNSTYRVVSVLTVLHQDWLNGKEYKCKVSNKALPAPIEKTISKAKGQPREPQVYTLPPSREEMTKNQVSLWCLVKGFYPSDIAVEWESNGQPENNYKTTPPVLDSDGSFFLYSKLTVDKSRWQQGNVFSCSVMHEALHNHYTQKSLSLSPG
chain 2: not shown
notes: scFab-Fc heterodimer
B2: B7H6#23/CD3#6 (bispecific antibody, human IgG1, kappa, L234A L235A)
chain 1: B1 chain 1
chain 2: not shown
notes: scFab-Fc heterodimer
B3: B7H6#10/CD3#1 (bispecific antibody, human IgG1, kappa, lambda, L234A L235A)
chain 1: DIQMTQSPSSVSASVGDRVTITCRASQGISSWLAWYQQKPGKAPKLLIYVASSLQRGVPSRFSGSGSGTDFTLTISNLQPEDFATYYCQQANSFPRTFGQGTKVEIKRTVAAPSVFIFPPSDEQLKSGTASVVCLLNNFYPREAKVQWKVDNALQSGNSQESVTEQDSKDSTYSLSSTLTLSKADYEKHKVYACEVTHQGLSSPVTKSFNRGECGGGGSEGKSSGSGSESKSTEGKSSGSGSESKSTGGGGSQVHLQESGPGLVKPSETLSLTCTVSGDSISSYYWSWIRQPAGKGLEWIGHIYTSEKNNYNPSLKSRVIMSVDTSKNQFSLNLSSVTAADTAVYYCARVGNWGSHDAWGQGTLVTVSSASTKGPSVFPLAPSSKSTSGGTAALGCLVKDYFPEPVTVSWNSGALTSGVHTFPAVLQSSGLYSLSSVVTVPSSSLGTQTYICNVNHKPSNTKVDKRVEPKSCDKTHTCPPCPAPEAAGGPSVFLFPPKPKDTLMISRTPEVTCVVVDVSHEDPEVKFNWYVDGVEVHNAKTKPREEQYNSTYRVVSVLTVLHQDWLNGKEYKCKVSNKALPAPIEKTISKAKGQPREPQVYTLPPSREEMTKNQVSLWCLVKGFYPSDIAVEWESNGQPENNYKTTPPVLDSDGSFFLYSKLTVDKSRWQQGNVFSCSVMHEALHNHYTQKSLSLSPG
chain 2: EAVVTQEPSLTVSPGGTVTLTCRSSTGAVTTSNYANWVQEKPGQLPRGLIGGTNKRAPWVPARFSGSLLGGKAALTLSGAQPEDEAEYFCALWYSNLWVFGGGTKLTVLGQPKAAPSVTLFPPSSEELQANKATLVCLISDFYPGAVKVAWKADGSPVNTGVETTTPSKQSNNKYAASSYLSLTPEQWKSHRSYSCQVTHEGSTVEKTVAPAECSGGGGSEGKSSGSGSESKSTEGKSSGSGSESKSTGGGGSEVQLVESGGGLVQPGGSLKLSCAASGFTFNTYAMNWVRQAPGKGLEWVARIRSKYNNYATYYADSVKDRFTISRDDSKNTAYLQMNNLKTEDTAVYYCVRHGNFGNSYVSWFAYWGQGTLVTVSAASTKGPSVFPLAPSSKSTSGGTAALGCLVKDYFPEPVTVSWNSGALTSGVHTFPAVLQSSGLYSLSSVVTVPSSSLGTQTYICNVNHKPSNTKVDKRVEPKSCDKTHTCPPCPAPEAAGGPSVFLFPPKPKDTLMISRTPEVTCVVVDVSHEDPEVKFNWYVDGVEVHNAKTKPREEQYNSTYRVVSVLTVLHQDWLNGKEYKCKVSNKALPAPIEKTISKAKGQPREPQVYTLPPSREEMTKNQVSLSCAVKGFYPSDIAVEWESNGQPENNYKTTPPVLDSDGSFFLVSKLTVDKSRWQQGNVFSCSVMHEALHNRFTQKSLSLSPG
notes: scFab-Fc heterodimer, one B7H6 chain and one CD3 chain

Columns and labels:
[1] = target: T1, trypsin inhibitor from Glycine max soybean (Glycine max (soybean)); assay: SPR, 1 µM binder over immobilized trypsin inhibitor
T1 construct: unrelated negatively charged protein, amine-coupled to the chip
T1 sequence (P01070 25-205): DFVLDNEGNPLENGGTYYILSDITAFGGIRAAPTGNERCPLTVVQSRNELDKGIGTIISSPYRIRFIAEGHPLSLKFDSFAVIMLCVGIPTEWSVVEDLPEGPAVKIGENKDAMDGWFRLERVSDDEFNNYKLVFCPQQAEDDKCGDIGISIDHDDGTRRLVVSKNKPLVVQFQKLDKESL
Procedure, shortened: (§1)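 Non-specific binding tested with samples at 1 μM in HBS-EP at 25 °C, 5 μL/min, over lysozyme or trypsin inhibitor amine-coupled to CM5 chip (3000–5000 RU). Association 10 min, dissociation 15 min.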

Cyno CD3 E+G HuFc-6xHis [2] = target: T2, Cyno CD3 E+G HuFc-6xHis (cynomolgus monkey); assay: SPR, CD3E+G-hFc immobilized, binder analyte
T2 construct: also called CyCD3E+G-hFc; cyCD3
T2 sequence (chain, as listed by the source limits assumed): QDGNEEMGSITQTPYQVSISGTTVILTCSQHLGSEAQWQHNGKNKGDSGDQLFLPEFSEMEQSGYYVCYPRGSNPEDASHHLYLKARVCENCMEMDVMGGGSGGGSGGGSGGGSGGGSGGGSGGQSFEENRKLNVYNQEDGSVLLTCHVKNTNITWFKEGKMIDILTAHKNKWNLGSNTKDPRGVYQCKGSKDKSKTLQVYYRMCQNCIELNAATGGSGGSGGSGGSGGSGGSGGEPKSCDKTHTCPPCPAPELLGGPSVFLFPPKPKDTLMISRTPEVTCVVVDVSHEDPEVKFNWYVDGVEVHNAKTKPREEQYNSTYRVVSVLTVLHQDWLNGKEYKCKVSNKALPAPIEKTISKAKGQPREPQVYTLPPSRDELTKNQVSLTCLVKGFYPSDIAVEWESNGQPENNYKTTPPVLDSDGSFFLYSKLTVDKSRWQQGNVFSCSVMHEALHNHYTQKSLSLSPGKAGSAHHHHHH
Procedure, shortened: (§2)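 On a ProteOn XPR36, human and cyno CD3E+G-hFc were amine-coupled to a GLM chip at 0.4, 0.2 and 0.1 μg/mL in 10 mM acetate pH 4.5. B7H6/CD3 binding protein (0–100 nM) flowed in HBS-EP+ at 30 μL/min, with 300 s association and 600 s dissociation. Interspot and blank responses were subtracted.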

Human CD3 E+G HuFc-6xHis = target: T3, Human CD3 E+G HuFc-6xHis (human); assay: SPR, CD3E+G-hFc immobilized, binder analyte
T3 construct: also called HuCD3E+G-hFc; huCD3
T3 sequence (chain, as listed by the source limits assumed): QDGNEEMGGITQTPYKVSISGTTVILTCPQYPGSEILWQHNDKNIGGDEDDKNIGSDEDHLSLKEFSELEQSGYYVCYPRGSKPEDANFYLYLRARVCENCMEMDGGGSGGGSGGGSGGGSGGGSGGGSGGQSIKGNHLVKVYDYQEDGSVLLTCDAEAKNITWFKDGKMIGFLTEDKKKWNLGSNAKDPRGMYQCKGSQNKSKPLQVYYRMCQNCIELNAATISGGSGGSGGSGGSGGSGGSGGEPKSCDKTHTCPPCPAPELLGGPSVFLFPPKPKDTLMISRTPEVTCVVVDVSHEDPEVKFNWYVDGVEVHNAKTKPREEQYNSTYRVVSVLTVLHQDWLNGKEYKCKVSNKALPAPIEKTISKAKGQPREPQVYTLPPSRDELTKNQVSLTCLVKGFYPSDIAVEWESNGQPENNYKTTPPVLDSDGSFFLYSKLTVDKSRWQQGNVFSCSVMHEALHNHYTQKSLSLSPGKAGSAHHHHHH
Procedure, shortened: as §2

Cyno B7H6-His [3] = target: T4, Cyno B7H6-His (cynomolgus monkey); assay: ratio of SPR KDs cyno/human
T4 construct: also called CyB7H6; cyB7-H6
T4 chain: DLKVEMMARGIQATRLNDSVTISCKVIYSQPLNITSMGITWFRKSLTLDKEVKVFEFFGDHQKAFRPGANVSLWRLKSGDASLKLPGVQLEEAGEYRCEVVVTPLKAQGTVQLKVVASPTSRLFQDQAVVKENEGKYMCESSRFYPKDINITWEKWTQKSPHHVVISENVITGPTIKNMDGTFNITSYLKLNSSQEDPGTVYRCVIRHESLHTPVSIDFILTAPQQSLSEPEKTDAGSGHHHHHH

Cyno CD3 E+G HuFc-6xHis [4] = target: T2, Cyno CD3 E+G HuFc-6xHis; assay: ratio of SPR KDs cyno/human
CD3 on human T-cells = target: T5, CD3 on human T-cells (human, UniProt P07766;P09693); assay: flow cytometry on purified human T-cells, PE anti-human secondary antibody
T5 construct: endogenous, on the surface of purified T-cells; also called human T-cells expressing CD3
T5 sequence (P07766 23-207, chain 1 of 2): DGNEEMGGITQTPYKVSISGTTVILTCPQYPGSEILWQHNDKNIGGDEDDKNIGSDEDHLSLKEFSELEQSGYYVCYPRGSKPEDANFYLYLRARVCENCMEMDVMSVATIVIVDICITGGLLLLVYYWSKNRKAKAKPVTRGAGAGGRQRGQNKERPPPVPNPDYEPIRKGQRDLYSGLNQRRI
T5 sequence (P09693 23-182, chain 2 of 2): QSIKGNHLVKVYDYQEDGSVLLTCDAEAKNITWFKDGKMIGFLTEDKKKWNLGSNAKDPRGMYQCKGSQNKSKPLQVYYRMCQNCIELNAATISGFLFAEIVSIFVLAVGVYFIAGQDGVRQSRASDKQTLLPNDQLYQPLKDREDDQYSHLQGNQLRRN
Method: T-cells were isolated by negative selection using the Pan T Cell Isolation Kit II (Miltenyi Biotec #130-091-156). In brief, cells were resuspended in 40 μl buffer PBS/0.5% BSA (Gibco ref #041-94553 M)/2 mM EDTA (Invitrogen ref #15575-038) per 10 Mio cells and incubated with 10 μl of Biotin-Antibody cocktail per 10 Mio cells for 5 min at 4° C. Subsequently, 30 μl buffer and 20 μl anti-biotin MACS® MicroBeds/10 million cells were added and incubated for 10 min at 4° C. Subsequently the mixture was placed in a pre-rinsed 25LS column (Miltenyi Biotec #130-042-401) in the magnetic field of suitable MACS® microbeads separator (Miltenyi Biotec). Flow-through was collected and washed in assay medium.
T-cells were stained with increasing concentrations of two-step purified B7H6/CD3 binding proteins in FACS buffer (PBS/0.5% BSA/0.05% sodium azide). Bound molecules were detected with PE-conjugated anti-human secondary antibody (Sigma-Aldrich, #P8047).

Cyno B7H6-His [5] = target: T4, Cyno B7H6-His; assay: SPR, binder captured on Protein A/G, B7H6 analyte
Procedure, shortened: (§3)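 B7H6/CD3 binder captured (~700 RU) on a Protein A/G CM5 surface in HBS-EP+. Human or cyno B7H6 injected at 0–100 nM and human B7H1 at 0 nM and 1 μM, 300 s association and 1200 s dissociation. Data double-referenced against the reference flow cell and blank.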

[6] = target: T6, chicken egg white lysozyme (chicken, UniProt P00698 19-147); assay: SPR, 1 µM binder over immobilized lysozyme
T6 construct: unrelated positively charged protein, amine-coupled to the chip; also called Lysozyme (positive)
T6 sequence (P00698 19-147): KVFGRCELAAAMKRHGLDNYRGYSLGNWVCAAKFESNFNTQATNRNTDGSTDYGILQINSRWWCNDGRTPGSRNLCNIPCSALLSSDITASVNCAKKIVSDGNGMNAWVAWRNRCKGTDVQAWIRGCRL
Procedure, shortened: as §1

Human B7H1 = target: T7, Human B7H1 (human, UniProt Q9NZQ7 20-239); assay: SPR, binder captured on Protein A/G, HuB7H1 analyte
T7 construct: also called HuB7H1; huB7-H1
T7 sequence (Q9NZQ7 other isoform, or with tags, fused parts or gaps limits assumed): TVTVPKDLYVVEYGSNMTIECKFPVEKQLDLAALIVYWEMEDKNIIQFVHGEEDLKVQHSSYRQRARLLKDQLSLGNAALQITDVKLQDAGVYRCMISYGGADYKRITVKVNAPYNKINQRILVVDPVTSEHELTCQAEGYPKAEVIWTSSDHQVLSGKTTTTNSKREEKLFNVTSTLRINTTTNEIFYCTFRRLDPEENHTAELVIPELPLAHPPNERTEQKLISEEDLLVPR
Procedure, shortened: as §3

[7] = target: T8, human B7H6 on HCT-15 cells (human, UniProt Q68D85 25-454); assay: flow cytometry on HCT-15 cells, PE anti-human secondary antibody
T8 construct: whole, on cells; also called B7H6-positive HCT-15 cells
T8 sequence (looked up): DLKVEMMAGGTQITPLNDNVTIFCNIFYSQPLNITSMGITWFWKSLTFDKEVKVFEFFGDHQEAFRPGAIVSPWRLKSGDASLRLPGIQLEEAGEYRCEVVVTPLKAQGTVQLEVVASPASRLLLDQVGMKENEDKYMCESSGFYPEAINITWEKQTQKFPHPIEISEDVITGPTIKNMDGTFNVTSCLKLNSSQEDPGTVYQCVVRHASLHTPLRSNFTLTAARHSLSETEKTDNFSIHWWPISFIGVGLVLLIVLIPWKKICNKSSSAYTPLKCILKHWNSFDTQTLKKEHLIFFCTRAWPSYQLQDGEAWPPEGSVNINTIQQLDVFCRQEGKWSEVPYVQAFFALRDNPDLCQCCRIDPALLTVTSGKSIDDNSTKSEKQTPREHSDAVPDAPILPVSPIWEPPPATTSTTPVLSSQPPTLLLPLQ
Method: Binding of B7H6/CD3 binding proteins to HCT-15, a human (colo-rectal cancer) CRC cell line was tested by flow cytometry. In a previous experiment, it has been confirmed that HCT-15 cells expresses B7-H6 on the RNA levels as well as the protein level with approximately 8,000 B7-H6 receptors on the cell surface (data not shown). B7H6/CD3 binding proteins were produced, as described in Example 2. HCT-15 cells were stained with increasing concentrations of two-step purified B7H6/CD3 binding proteins in FACS buffer (PBS/0.5% BSA/0.05% sodium azide). Bound molecules were detected with PE-conjugated anti-human secondary antibody (Sigma-Aldrich, #P8047).

[8] = target: T9, Fc-His-tagged human B7H6 ECD (human); assay: ELISA, plate coated with Fc-His-tagged human B7H6 ECD, anti-human IgG F(ab')2-peroxidase, TMB
T9 construct: also called huB7H6-ECD-Fc-His; recombinant human B7H6 ECD
Method: To assess binding of B7H6/CD3 binding proteins to recombinant human Fc-His-tagged B7H6 ECD and human Fc-His-tagged Ala-mutated B7H6 extracellular proteins as described in Example 3, MediSorp™ plates (Nunc, 467320) were coated with […] recombinant proteins overnight at 4° C. The next day, plates were blocked with 0.5% bovine serum albumin (BSA) in phosphate buffered saline (PBS) for 1 hour at room temperature (RT). Subsequently plates were washed with […] containing 0.05% TWEEN®20 viscous liquid and B7H6/CD3 binding proteins were incubated at concentrations ranging from 0.00001 to 10 μg/ml. After an additional washing step, bound B7H6/CD3 binding proteins were detected by a peroxidase conjugated goat anti-human IgG F(ab′)₂-specific secondary antibody (Jackson Immunoresearch) and visualized by TMB substrate solution (Bender Med Systems).

[9] = target: T8, human B7H6 on HCT-15 cells; assay: cell-based or functional assay

Binder	Non-specific binding (RU) [1] [RU]	Kd (Cyno CD3 E+G HuFc-6xHis [2]) [nM]	Kd (Human CD3 E+G HuFc-6xHis) [nM]	cy/hu B7-H6 (Cyno B7H6-His [3])	cy/hu CD3 (Cyno CD3 E+G HuFc-6xHis [4])	binding result (CD3 on human T-cells)	Kd (Cyno B7H6-His [5]) [nM]	Non-specific binding (RU) [6] [RU]	binding result (Human B7H1)	EC50 (read off the curve) [7] [nM]	EC50 (read off the curve) [8] [µg/mL]	EC50 [nM], 72 hour cytotoxicity assay, non-stimulated T-cells (Donor #1) as effector cells, HCT-15 cells as target cells [9] [nM]
B1	115	3.7	2.8	0.9	1.3	binds	1.9	15	no binding (tested: 1 µM)			
B2	96.5	3.9	3.4	1.1	1.2	binds	2	57.2	no binding (tested: 1 µM)			
B3										~0.9	~0.05	0.53
